Patent US20140315822A1

Experiments:
[1] = target: T1, PDZ domain of the human MAST2 protein (human), Q6P0Q8; assay: ITC, 298 K, MAST2-PDZ titrated with peptide
T1 chain: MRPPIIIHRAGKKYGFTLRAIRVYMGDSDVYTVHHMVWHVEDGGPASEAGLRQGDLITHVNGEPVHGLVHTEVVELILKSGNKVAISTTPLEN

[2] = target: T1, PDZ domain of the human MAST2 protein …

SWEVHGQQTRL (modifications not checked) [454 (Neurovita 3)] was tested, and the TΔS (entropy) [1] was 1110, the n (stoechiometry) [1] was 1.01 and the ΔH (enthalpy) [1] was -8720. It also gave a gain of affinity as compared to Neurovita1 [2] of 20 fold.
